The record followed here is the supplement of paper PMC7125110.

± gives the standard error. This sample holds only a part of the variants without activity.

B1: glmS ribozyme (parent)
chain: AUAAAAGCGCCAGAACUACAGAAAUGUAGUUGACGAGGAGGAGGUUUAUCGAAUUUUCGGCGGAUGCCUCCAAA

Common to all, as to details: with glucosamine-6-phosphate
The variants in data set [1] derive from B1. The data set is described as follows: self-cleavage kobs at 40 uM GlcN6P; higher = faster cleavage; RNA array. The method in brief: (§1)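 Tiles bearing barcoded ribozyme variants, transcribed in situ by E. coli RNA polymerase on sequenced MiSeq chips, were imaged over ~14 h at 37 °C using a hybridised Cy3 probe. Glucosamine-6-phosphate was supplied at 40 μM to 10 mM in HEPES/KCl/Mg(OAc)2 buffer. kobs came from one- or two-exponential decay fits to normalised per-tile medians, and weighted Michaelis–Menten fits then provided kcat and KM.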

In data set [2] the parent is B1. Briefly: self-cleavage kobs at 640 uM GlcN6P; higher = faster cleavage; RNA array. The method in brief: as §1
The variants in data set [3] derive from B1. The data set is described as follows: self-cleavage kobs at 2500 uM GlcN6P; higher = faster cleavage; RNA array. The method in brief: as §1
In data set [4] the parent is B1. Briefly: self-cleavage kobs at 10000 uM GlcN6P; higher = faster cleavage; RNA array. The method in brief:
as §1

Data set [5] covers variants of B1. Briefly: self-cleavage kobs at 160 uM GlcN6P; higher = faster cleavage; RNA array. The method in brief: as §1

For G38U G66C, in the data set with glucosamine-6-phosphate [1], the “self-cleavage kobs at 40 uM GlcN6P” value was less than 1e-05 s⁻¹. For the same variant, the “self-cleavage kobs at 640 uM GlcN6P” value with glucosamine-6-phosphate [2] is less than 1e-05 s⁻¹.
Consider C10A C50G G63C, for which, in the data set with glucosamine-6-phosphate [1], the “self-cleavage kobs at 40 uM GlcN6P” value was 0.000128 ± 3.3e-05 s⁻¹. Further, the “self-cleavage kobs at 2500 uM GlcN6P” value with glucosamine-6-phosphate [3] stood at 7.48e-05 ± 2.8e-05 s⁻¹. Moreover, the “self-cleavage kobs at 10000 uM GlcN6P” value with glucosamine-6-phosphate [4] was 4.91e-05 ± 1.8e-05 s⁻¹.
For the variant A33C A36G C67G, in the data set with glucosamine-6-phosphate [1], the “self-cleavage kobs at 40 uM GlcN6P” value was less than 1e-05 s⁻¹.
Still for that read-out and setting: under A36C G59U C68G stands less than 1e-05 s⁻¹.
As for C8U A52G G63U, the “self-cleavage kobs at 40 uM GlcN6P” value in the data set with glucosamine-6-phosphate [1] is less than 1e-05 s⁻¹. Further, the “self-cleavage kobs at 10000 uM GlcN6P” value in the data set with glucosamine-6-phosphate [4] is less than 1e-05 s⁻¹.
As for G32C A39C, the “self-cleavage kobs at 40 uM GlcN6P” value with glucosamine-6-phosphate [1] is less than 1e-05 s⁻¹. Also, in the data set with glucosamine-6-phosphate [5], the “self-cleavage kobs at 160 uM GlcN6P” value was less than 1e-05 s⁻¹.
Consider G7A U47C, for which the “self-cleavage kobs at 40 uM GlcN6P” value with glucosamine-6-phosphate [1] is less than 1e-05 s⁻¹. For the same variant, the “self-cleavage kobs at 160 uM GlcN6P” value with glucosamine-6-phosphate [5] is less than 1e-05 s⁻¹. Also, in the data set with glucosamine-6-phosphate [2], the “self-cleavage kobs at 640 uM GlcN6P” value is less than 1e-05 s⁻¹.
For C10G C34U G38C A64C C67U, the “self-cleavage kobs at 40 uM GlcN6P” value with glucosamine-6-phosphate [1] is less than 1e-05 s⁻¹. For the same variant, in the data set with glucosamine-6-phosphate [4], the “self-cleavage kobs at 10000 uM GlcN6P” value was less than 1e-05 s⁻¹.
Consider G43C U46C, for which the “self-cleavage kobs at 40 uM GlcN6P” value with glucosamine-6-phosphate [1] is less than 1e-05 s⁻¹. Besides, the “self-cleavage kobs at 160 uM GlcN6P” value with glucosamine-6-phosphate [5] is less than 1e-05 s⁻¹. For the same variant, the “self-cleavage kobs at 640 uM GlcN6P” value with glucosamine-6-phosphate [2] is less than 1e-05 s⁻¹. In addition, in the data set with glucosamine-6-phosphate [3], the “self-cleavage kobs at 2500 uM GlcN6P” value is less than 1e-05 s⁻¹.
In the case of C8A C67G C68G, in the data set with glucosamine-6-phosphate [1], the “self-cleavage kobs at 40 uM GlcN6P” value stood at 5.09e-05 ± 1.9e-05 s⁻¹. Besides, the “self-cleavage kobs at 640 uM GlcN6P” value in the data set with glucosamine-6-phosphate [2] turned out to be 0.000231 ± 5.6e-05 s⁻¹. Moreover, the “self-cleavage kobs at 10000 uM GlcN6P” value with glucosamine-6-phosphate [4] was 4.91e-05 ± 1.2e-05 s⁻¹.
As for U31G C68A, the “self-cleavage kobs at 40 uM GlcN6P” value in the data set with glucosamine-6-phosphate [1] is less than 1e-05 s⁻¹. Also, the “self-cleavage kobs at 640 uM GlcN6P” value with glucosamine-6-phosphate [2] was found to be 3.5e-05 ± 1.6e-05 s⁻¹. In addition, in the data set with glucosamine-6-phosphate [3], the “self-cleavage kobs at 2500 uM GlcN6P” value turned out to be 8.49e-05 ± 1.9e-05 s⁻¹.
As for A12C C34G, in the data set with glucosamine-6-phosphate [1], the “self-cleavage kobs at 40 uM GlcN6P” value is less than 1e-05 s⁻¹. Moreover, the “self-cleavage kobs at 160 uM GlcN6P” value with glucosamine-6-phosphate [5] was less than 1e-05 s⁻¹. Besides, the “self-cleavage kobs at 10000 uM GlcN6P” value with glucosamine-6-phosphate [4] is less than 1e-05 s⁻¹.
Consider C11U A33C A53U U57G G60U, for which, in the data set with glucosamine-6-phosphate [1], the “self-cleavage kobs at 40 uM GlcN6P” value was less than 1e-05 s⁻¹. Further, the “self-cleavage kobs at 10000 uM GlcN6P” value with glucosamine-6-phosphate [4] is less than 1e-05 s⁻¹.
Consider A12U U47G, for which the “self-cleavage kobs at 40 uM GlcN6P” value with glucosamine-6-phosphate [1] amounted to 0.000706 ± 0.0001 s⁻¹. The “self-cleavage kobs at 2500 uM GlcN6P” value with glucosamine-6-phosphate [3] is 0.0123 ± 0.0039 s⁻¹. Further, in the data set with glucosamine-6-phosphate [4], the “self-cleavage kobs at 10000 uM GlcN6P” value is 0.0118 ± 0.002 s⁻¹.
As to C8G G63U, the “self-cleavage kobs at 40 uM GlcN6P” value with glucosamine-6-phosphate [1] is less than 1e-05 s⁻¹. In the data set with glucosamine-6-phosphate [4], the “self-cleavage kobs at 10000 uM GlcN6P” value is less than 1e-05 s⁻¹.
Consider C58U G59C, for which the “self-cleavage kobs at 40 uM GlcN6P” value with glucosamine-6-phosphate [1] is less than 1e-05 s⁻¹.
On to A52G C61U, for which, in the data set with glucosamine-6-phosphate [1], the “self-cleavage kobs at 40 uM GlcN6P” value was less than 1e-05 s⁻¹. The “self-cleavage kobs at 160 uM GlcN6P” value in the data set with glucosamine-6-phosphate [5] was less than 1e-05 s⁻¹. For the same variant, the “self-cleavage kobs at 2500 uM GlcN6P” value with glucosamine-6-phosphate [3] was less than 1e-05 s⁻¹.
For G37U G38A A42C, the “self-cleavage kobs at 40 uM GlcN6P” value with glucosamine-6-phosphate [1] is less than 1e-05 s⁻¹. Moreover, the “self-cleavage kobs at 640 uM GlcN6P” value with glucosamine-6-phosphate [2] was less than 1e-05 s⁻¹. Further, the “self-cleavage kobs at 2500 uM GlcN6P” value with glucosamine-6-phosphate [3] is less than 1e-05 s⁻¹. Moreover, the “self-cleavage kobs at 10000 uM GlcN6P” value with glucosamine-6-phosphate [4] is less than 1e-05 s⁻¹.
With A39G C71A, the “self-cleavage kobs at 40 uM GlcN6P” value in the data set with glucosamine-6-phosphate [1] is 0.000536 ± 7.8e-05 s⁻¹. In addition, the “self-cleavage kobs at 160 uM GlcN6P” value with glucosamine-6-phosphate [5] is 0.000645 ± 9.8e-05 s⁻¹. For the same variant, in the data set with glucosamine-6-phosphate [2], the “self-cleavage kobs at 640 uM GlcN6P” value was determined as 0.00173 ± 0.00045 s⁻¹. For the same variant, the “self-cleavage kobs at 2500 uM GlcN6P” value with glucosamine-6-phosphate [3] is 0.00277 ± 0.00061 s⁻¹. In addition, in the data set with glucosamine-6-phosphate [4], the “self-cleavage kobs at 10000 uM GlcN6P” value came out at 0.00612 ± 0.0011 s⁻¹.
Regarding G38C A39C G40C C50A A53G U65C, in the data set with glucosamine-6-phosphate [1], the “self-cleavage kobs at 40 uM GlcN6P” value is less than 1e-05 s⁻¹.
On to U47A U54C C71U, for which the “self-cleavage kobs at 40 uM GlcN6P” value with glucosamine-6-phosphate [1] is 0.000577 ± 0.00018 s⁻¹. Besides, the “self-cleavage kobs at 10000 uM GlcN6P” value with glucosamine-6-phosphate [4] was found to be 0.0135 ± 0.0039 s⁻¹.
In the case of C10G G32U C58A C70G, in the data set with glucosamine-6-phosphate [1], the “self-cleavage kobs at 40 uM GlcN6P” value came out at 5.06e-05 ± 1.8e-05 s⁻¹.
Consider A6C G7A G40A, for which the “self-cleavage kobs at 40 uM GlcN6P” value with glucosamine-6-phosphate [1] was less than 1e-05 s⁻¹. For the same variant, the “self-cleavage kobs at 10000 uM GlcN6P” value with glucosamine-6-phosphate [4] was less than 1e-05 s⁻¹.
Take G43U U49A G60A C68U: the “self-cleavage kobs at 40 uM GlcN6P” value in the data set with glucosamine-6-phosphate [1] was less than 1e-05 s⁻¹. The “self-cleavage kobs at 10000 uM GlcN6P” value with glucosamine-6-phosphate [4] is less than 1e-05 s⁻¹.
Take G38U A64G: in the data set with glucosamine-6-phosphate [1], the “self-cleavage kobs at 40 uM GlcN6P” value is less than 1e-05 s⁻¹. Also, in the data set with glucosamine-6-phosphate [3], the “self-cleavage kobs at 2500 uM GlcN6P” value was less than 1e-05 s⁻¹.
Consider C11G U55C, for which the “self-cleavage kobs at 40 uM GlcN6P” value with glucosamine-6-phosphate [1] was less than 1e-05 s⁻¹. Moreover, the “self-cleavage kobs at 160 uM GlcN6P” value with glucosamine-6-phosphate [5] is less than 1e-05 s⁻¹. The “self-cleavage kobs at 640 uM GlcN6P” value with glucosamine-6-phosphate [2] is less than 1e-05 s⁻¹.
In the case of A33G A39U G41C, the “self-cleavage kobs at 40 uM GlcN6P” value in the data set with glucosamine-6-phosphate [1] is less than 1e-05 s⁻¹. In addition, the “self-cleavage kobs at 10000 uM GlcN6P” value in the data set with glucosamine-6-phosphate [4] is less than 1e-05 s⁻¹.
For G37U A53U U55A, the “self-cleavage kobs at 40 uM GlcN6P” value with glucosamine-6-phosphate [1] is less than 1e-05 s⁻¹.
